Experimental findings from US20130130985A1 are described below.

What all share (assay): cell-based or functional assay
For experiment [1], the target named is T1, human oxytocin receptor (human), P30559.
T1 chain: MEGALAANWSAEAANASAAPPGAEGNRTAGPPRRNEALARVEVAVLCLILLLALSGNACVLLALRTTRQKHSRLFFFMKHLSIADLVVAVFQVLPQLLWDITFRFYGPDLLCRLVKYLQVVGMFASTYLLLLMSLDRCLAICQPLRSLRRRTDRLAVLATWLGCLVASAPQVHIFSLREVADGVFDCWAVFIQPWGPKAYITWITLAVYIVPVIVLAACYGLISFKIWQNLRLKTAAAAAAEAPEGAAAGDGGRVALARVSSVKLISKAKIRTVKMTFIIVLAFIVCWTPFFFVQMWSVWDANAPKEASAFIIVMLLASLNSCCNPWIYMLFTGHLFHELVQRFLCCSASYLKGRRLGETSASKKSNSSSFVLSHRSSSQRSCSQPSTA

Experiment [2] has as its target human vasopressin V1a receptor (human), P37288.
Experiment [3] addresses T2, human vasopressin V1b receptor (human), P47901.
T2 chain: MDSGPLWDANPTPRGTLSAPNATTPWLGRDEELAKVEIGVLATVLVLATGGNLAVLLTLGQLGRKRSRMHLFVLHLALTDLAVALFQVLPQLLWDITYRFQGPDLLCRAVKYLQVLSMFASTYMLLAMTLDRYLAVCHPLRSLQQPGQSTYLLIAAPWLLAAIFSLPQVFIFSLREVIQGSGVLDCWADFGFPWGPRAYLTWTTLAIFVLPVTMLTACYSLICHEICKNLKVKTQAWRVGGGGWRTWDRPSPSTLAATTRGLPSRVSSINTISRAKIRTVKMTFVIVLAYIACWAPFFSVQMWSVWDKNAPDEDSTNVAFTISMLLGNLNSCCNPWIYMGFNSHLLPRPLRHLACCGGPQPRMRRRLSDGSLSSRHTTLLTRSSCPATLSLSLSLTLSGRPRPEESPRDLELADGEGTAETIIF

Experiment [4] addresses human vasopressin V2 receptor (human), P30518.

Sequence of human vasopressin V1a receptor (human), P37288 (P37288 whole entry): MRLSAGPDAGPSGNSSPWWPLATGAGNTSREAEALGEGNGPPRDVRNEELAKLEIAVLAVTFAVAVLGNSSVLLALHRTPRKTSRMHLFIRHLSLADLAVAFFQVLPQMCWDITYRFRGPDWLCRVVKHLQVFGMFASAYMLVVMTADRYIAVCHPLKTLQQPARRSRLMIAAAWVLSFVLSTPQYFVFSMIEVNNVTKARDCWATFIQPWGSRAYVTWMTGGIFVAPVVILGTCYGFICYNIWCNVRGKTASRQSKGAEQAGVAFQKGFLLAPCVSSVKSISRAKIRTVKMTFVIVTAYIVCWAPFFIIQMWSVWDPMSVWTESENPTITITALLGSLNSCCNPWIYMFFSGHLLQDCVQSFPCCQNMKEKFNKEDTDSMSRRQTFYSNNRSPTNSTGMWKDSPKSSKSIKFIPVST

Consider UYIQNUPLG (not fully specified; modifications not checked) [d[C1,6U]-OT], for which, in experiment [1], the EC50, IP-One HTRF assay turned out to be 400 nM; the Emax, FLIPR calcium assay was determined as 89%; the Emax, IP-One HTRF assay was found to be 72%. Moreover, in experiment [2], the Emax, FLIPR calcium assay was 100%. Further, in experiment [3], the Emax, FLIPR calcium assay is 92% and the Emax, IP-One HTRF assay worked out at 96%. In experiment [4], this molecule showed an Emax, cAMP accumulation assay of 134%.
